Measurements as given in patent publication US20020045591A1, “Methods and therapeutic compositions for treating cancer” (priority 1998, published 2002).
Blank lines part the entries; values can stand above or below the molecule they belong to.

Tests used:
[1] = tested on: β-catenin-mediated transactivation; test: TOPFLASH luciferase transactivation in SW480 cells (Example 1); assay type: cell-based, human; details: SW480 cells transfected with TOPFLASH and N-cadherin derivative, FIG. 6A
Method: (§1) Cell culture and transfections: CHO and SW480 human colon carcinoma cells were cultured in Dulbecco's modified Eagle's medium containing 10% fetal calf serum in an 8% CO2 incubator at 37° C. Transfections were performed using Lipofectamine (Gibco, BRL, USA) according to the manufacturer's instructions. Stably transfected CHO clones were generated by co-transfection with a plasmid encoding the puromycin resistance gene. Two days after transfection, cells were replated in the presence of 10 μg/ml puromycin (Sigma, Holon, Israel). Stable clones were isolated 2 weeks later and tested for the expression of the transgene by Western blot analysis.
(§2) Transactivation assays: CHO cells were transfected with TOPFLASH or FOPFLASH vectors (van de Wetering et al., 1997, ibid) and with pCDNA3 coding for β-galactosidase to normalize for transfection efficiency. The transfection mixture also contained either β-catenin, LEF-1 or cadherin derivatives in different combinations, as indicated. SW480 cells were transfected with TOPFLASH and cadherin derivatives. […] The reactions were stopped with 1 M Na2CO3 and the absorbance at 420 nm was determined. […] The luciferase reaction was monitored by a TD-20e luminometer (Turner, USA) and normalized for the β-galactosidase activity. […]

β-catenin [2] = biological target: T1, β-catenin (Cricetulus griseus, UniProt G3H996); test: β-catenin level in CHO cells by Western blot; assay type: cell-based; details: stably transfected CHO cells, FIG. 2A
T1 construct: resulting from the stabilization of the endogenous β-catenin by the transfected cadherin derivatives; endogenous in cells; host or cells: CHO cells, stably or transiently transfected with cadherin derivatives only
T1 sequence (G3H996 1-781): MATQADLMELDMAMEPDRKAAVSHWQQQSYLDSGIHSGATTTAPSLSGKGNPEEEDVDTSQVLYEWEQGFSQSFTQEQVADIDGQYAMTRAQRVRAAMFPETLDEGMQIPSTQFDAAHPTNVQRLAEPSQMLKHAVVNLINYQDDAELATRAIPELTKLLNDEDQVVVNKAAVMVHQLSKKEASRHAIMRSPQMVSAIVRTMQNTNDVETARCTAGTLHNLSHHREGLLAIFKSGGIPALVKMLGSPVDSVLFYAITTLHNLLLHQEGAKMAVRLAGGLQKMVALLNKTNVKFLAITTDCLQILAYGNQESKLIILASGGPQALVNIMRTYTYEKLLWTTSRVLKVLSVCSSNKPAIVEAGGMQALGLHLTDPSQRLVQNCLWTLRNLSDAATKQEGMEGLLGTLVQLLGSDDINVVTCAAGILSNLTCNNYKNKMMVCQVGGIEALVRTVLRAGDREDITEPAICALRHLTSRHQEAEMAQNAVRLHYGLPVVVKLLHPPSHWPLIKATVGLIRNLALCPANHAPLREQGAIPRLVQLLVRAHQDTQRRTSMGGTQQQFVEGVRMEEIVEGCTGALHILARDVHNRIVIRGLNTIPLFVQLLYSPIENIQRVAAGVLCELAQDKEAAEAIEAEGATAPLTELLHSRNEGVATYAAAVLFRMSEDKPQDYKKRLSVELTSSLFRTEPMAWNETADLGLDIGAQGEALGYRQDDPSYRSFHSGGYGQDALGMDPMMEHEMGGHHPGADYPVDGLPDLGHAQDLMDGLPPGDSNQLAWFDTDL
Method: as §1
Immunoblotting and immunoprecipitation: The following antibodies were used: polyclonal pan-cadherin or monoclonal anti cadherin (CH-19) and polyclonal anti β-catenin antibodies were from Sigma (Holon, Israel). Monoclonal anti β-catenin, 5H10 (from M. Wheelock), anti IL2Rα (from UBI), anti flag (M2, from IBI), anti HA (clone 12CA5, from Boehringer Mannheim, Germany), anti GFP (polyclonal, from Clontech, Palo Alto, Calif.), anti LEF-1 (polyclonal, kindly provided by Dr. R. Grosschedl). […]

β-catenin [3] = biological target: T1, β-catenin; test: Co-immunoprecipitation of cadherin derivatives with β-catenin in CHO cells; assay type: binding; details: stably transfected CHO cells, FIG. 2B
Source text: Immunoblotting and immunoprecipitation: The following antibodies were used: polyclonal pan-cadherin or monoclonal anti cadherin (CH-19) and polyclonal anti β-catenin antibodies were from Sigma (Holon, Israel). Monoclonal anti β-catenin, 5H10 (from M. Wheelock), anti IL2Rα (from UBI), anti flag (M2, from IBI), anti HA (clone 12CA5, from Boehringer Mannheim, Germany), anti GFP (polyclonal, from Clontech, Palo Alto, Calif.), anti LEF-1 (polyclonal, kindly provided by Dr. R. Grosschedl). Secondary antibodies for Western blotting were goat anti rabbit or anti mouse conjugated to HRP (Amersham, Buckinghampshire, UK), and for immunofluorescence analysis the secondary antibodies were FITC-goat anti mouse (Cappel, USA) or rhodamine-anti rabbit antibodies (from Jackson Immuno-Research, West Grove, Pa.). Cells were harvested in Laemmli's sample buffer and equal amounts of total cell protein from the different clones, or from transient transfections, were separated by SDS-PAGE, electrotransferred to nitrocellulose and incubated with the different antibodies. For immunoprecipitation, cells were harvested in IP buffer (20 mM Tris pH 8.0, 1% Triton X-100, 140 mM NaCl, 10% glycerol, 1 mM EGTA, 1.5 mM MgCl2, 1 mM DTT, 1 mM sodium vanadate, and 50 μg/ml PMSF). […]

CHO cells = test: Immunofluorescence localization in CHO cells; assay type: cell-based; details: stably transfected CHO cells, FIG. 4
Source text: (§3) Immunofluorescence microscopy: Cells cultured on glass coverslips were fixed with 3% paraformaldehyde in phosphate-buffered saline (PBS) and permeabilized with 0.5% Triton X-100. CHO cells were immunofluorescently labeled as described (Levenberg S. et al. (1998) Long-range and selective autoregulation of cell-cell and cell-matrix adhesions by cadherin or integrin ligands. J. Cell Sci. 111:347-357). Nuclei were visualized using DAPI and the fluorescence was examined using a Zeiss Axiophot microscope and a x100/1.3 Planapochromat objective.

SW480 cells = test: Immunofluorescence localization in SW480 cells (Example 1); assay type: cell-based, human; details: transfected SW480 cells, FIG. 6B
Source text: as §3

[4] = tested on: β-catenin-dependent transactivation; test: LEF-1 consensus luciferase transactivation in SW480 cells (Example 2); assay type: cell-based, human; details: co-transfection, FIG. 19A
Method: (§4) Cell Culture and Transfections: Canine kidney epithelial cells MDCK, human fibrosarcoma HT1080, 293-T human embryonic kidney cells, Balb/C mouse 3T3 and human colon carcinoma SW480 cell lines were cultured in Dulbecco's modified Eagle's medium supplemented with 10% calf serum (Gibco, Grand Island, N.Y.) at 37° C. in the presence of 7% CO2. The human renal carcinoma cell line KTCTL60 was grown in RPMI medium and 10% calf serum. Cells were transiently transfected with the cDNA constructs described below, using Ca^2+-phosphate or lipofectamine (Gibco) and the expression of the transgene was assessed between 24 and 48 hours after transfection. In some experiments, the expression of the stably transfected NH2 terminus-deleted β-catenin (Δ57) was enhanced in HT1080 cells by overnight treatment with 2 mM sodium butyrate.
(§5) A plasmid encoding β-galactosidase (0.5 μg) was cotransfected to enable normalization for transfection efficiency. The relevant plasmid expressing catenin constructs (4.5 μg) was co-transfected with the reporter, or an empty expression vector was included. After 24-48 hours expression of the reporter (luciferase) and the control (β-galactosidase) genes were determined using enzyme assay systems from Promega (Madison, Wis.).

[5] = tested on: β-catenin-mediated transactivation; test: TOPFLASH/FOPFLASH luciferase transactivation in CHO cells; assay type: cell-based; details: TOPFLASH with LEF-1 and β-catenin vs TOPFLASH and LEF-1 without β-catenin
Method: as §1, §2

[6] = tested on: LEF-1-driven transcription; test: LEF-1 consensus (TOPFLASH) transactivation in 293 cells; assay type: cell-based, human; details: FIG. 18B
Method: as §4, §5

effect on β-catenin levels (β-catenin [2]): increase in β-catenin levels
interaction with β-catenin by co-immunoprecipitation (β-catenin [3]): direct interaction
B1: N-cadherin: Full length chicken N-cadherin cloned into the pECE expression vector (protein)
chain: DWVIPPINLPENSRGPFPQELVRIRSDRDKSLSLRYSVTGPGADQPPTGIFIINPISGQLSVTKPLDREQIASFHLRAHAVDVNGNQVENPIDIVINVIDMNDNRPEFLHQVWNGTVPEGSKPGTYVMTVTAIDADDPNAQNGMLRYRILSQAPSSPSPNMFTINNETGDIITVAAGLDREKVQQYTLIIQATDMEGNPTYGLSNTATAVITVTDVNDNPPEFTAMTFYGEVPENRVDVIVANLTVTDKDQPHTPAWNARYQMTGGDPTGQFTILTDPNSNDGLVTVVKPIDFETNRMFVLTVAAENQVPLAKGIQHPPQSTATVSITVIDVNESPYFVPNPKLVRQEEGLLAGSMLTTFTARDPDRYMQQTSLRYSKLSDPANWLKIDPVNGQITTTAVLDRESIYVQNNMYNATFLASDNGIPPMSGTGTLQIYLLDINDNAPQVNPKEATTCETLQPNAINITAVDPDIDPNAGPFAFELPDSPPSIKRNWTIVRISGDHAQLSLRIRFLEAGIYDVPIVITDSGNPHASSTSVLKVKVCQCDINGDCTDVDRIVGAGLGTGAIIAILLCIIILLILVLMFVVWMKRRDKERQAKQLLIDPEDDVRDNILKYDEEGGGEEDQDYDLSQLQQPDTVEPDAIKPVGIRRLDERPIHAEPQYPVRSAAPHPGDIGDFINEGLKAADNDPTAPPYDSLLVFDYEGSGSTAGSLSSLNSSSSGGEQDYDYLNDWGPRFKKLADMYGGGDD
inhibition of TOPFLASH reporter (luciferase) activity [1]: about 70%
subcellular localization of cadherin derivative and β-catenin (CHO cells): mainly associated with cell-cell junctions
subcellular localization of β-catenin (SW480 cells): binding of the endogenous β-catenin to the plasma membrane
effect on constitutive LEF-1 driven transcription [4]: effectively blocked

B2: β-catenin: transfected β-catenin cDNA construct (protein, UniProt P35222 2-781, looked up)
Catenin beta-1: ATQADLMELDMAMEPDRKAAVSHWQQQSYLDSGIHSGATTTAPSLSGKGNPEEEDVDTSQVLYEWEQGFSQSFTQEQVADIDGQYAMTRAQRVRAAMFPETLDEGMQIPSTQFDAAHPTNVQRLAEPSQMLKHAVVNLINYQDDAELATRAIPELTKLLNDEDQVVVNKAAVMVHQLSKKEASRHAIMRSPQMVSAIVRTMQNTNDVETARCTAGTLHNLSHHREGLLAIFKSGGIPALVKMLGSPVDSVLFYAITTLHNLLLHQEGAKMAVRLAGGLQKMVALLNKTNVKFLAITTDCLQILAYGNQESKLIILASGGPQALVNIMRTYTYEKLLWTTSRVLKVLSVCSSNKPAIVEAGGMQALGLHLTDPSQRLVQNCLWTLRNLSDAATKQEGMEGLLGTLVQLLGSDDINVVTCAAGILSNLTCNNYKNKMMVCQVGGIEALVRTVLRAGDREDITEPAICALRHLTSRHQEAEMAQNAVRLHYGLPVVVKLLHPPSHWPLIKATVGLIRNLALCPANHAPLREQGAIPRLVQLLVRAHQDTQRRTSMGGTQQQFVEGVRMEEIVEGCTGALHILARDVHNRIVIRGLNTIPLFVQLLYSPIENIQRVAAGVLCELAQDKEAAEAIEAEGATAPLTELLHSRNEGVATYAAAVLFRMSEDKPQDYKKRLSVELTSSLFRTEPMAWNETADLGLDIGAQGEPLGYRQDDPSYRSFHSGGYGQDALGMDPMMEHEMGGHHPGADYPVDGLPDLGHAQDLMDGLPPGDSNQLAWFDTDL
increase in luciferase activity [5]: about 5 fold
activation of LEF-1-driven transcription [6]: potent transcriptional co-activator
